Test results from patent publication US20100029554A1, “Composition and Methods for Treatment of Congestive Heart Failure” (Amylin Pharmaceuticals, Inc., priority 2006, published 2010).
Where no end group is shown, it is not given here.

Tests used:
[1] = system: GLP/GIP/CT cyclase, RIN-m5F cells; experiment: GLP/GIP/CT Cyclase (RIN) assay; format: cell-based, rat; conditions: cAMP, values without **
Protocol: GLP/GIP/CT Cyclase (RIN) Assay
Five μl of serially diluted peptides are transferred to the 384-well assay plate. Rat pancreas insulinoma cells (RIN-m5F) are detached from a tissue culture flask with Versene and washed once in buffer. Then RIN-m5F cells are resusupended in buffer at 2.5×10^6 cells/ml. Then 10 μl cells (2.5×10^4 cells) are added to all wells of the assay plate and cells are stimulated at room temperature in the dark for 30 minutes. The reaction is terminated with 10 μl of lysis buffer and incubated at room temperature for 4 hrs in the dark. cAMP content is measured using Perkin Elmer AlphaScreen™ cAMP assay kit and results are read on a Perkin Elmer Fusion fluorometer. The assay is completed in 384-well plates at 25 microliter volumes.

Plasma stability = format: in vitro ADME; conditions: 20 μg/mL in plasma, 37° C., 0-5 hours
Protocol: To assess stability, the compound of interest is spiked into plasma at a concentration of 20 μg/mL. It is incubated at 37° C. for 0, 1, 2 3, 4, 5 hours in triplicate. At each time point, MeOH is added to a 96 well microtiter plate and then sample is added in a ratio of 1 part sample to 4 parts MeOH to quench the digestion reaction. Samples are mixed with multi-channel pipette or liquid handler. The plate is then centrifuged for 10 minutes and placed in an autosampler kept at 10° C. Samples are then injected into a mass spectrometer (API 3000, Applied Biosystems) equipped with an autosampler (Leap HTC Pal) and HPLC pumps (Shimadzu LC-10ADVP).

[2] = biological target: T1, GLP-1 receptor, endogenous in RINm5f cells (rat (RIN-m5F are called rat pancreas …, UniProt P32301 22-463)); experiment: cell-based or functional assay
T1 sequence (looked up): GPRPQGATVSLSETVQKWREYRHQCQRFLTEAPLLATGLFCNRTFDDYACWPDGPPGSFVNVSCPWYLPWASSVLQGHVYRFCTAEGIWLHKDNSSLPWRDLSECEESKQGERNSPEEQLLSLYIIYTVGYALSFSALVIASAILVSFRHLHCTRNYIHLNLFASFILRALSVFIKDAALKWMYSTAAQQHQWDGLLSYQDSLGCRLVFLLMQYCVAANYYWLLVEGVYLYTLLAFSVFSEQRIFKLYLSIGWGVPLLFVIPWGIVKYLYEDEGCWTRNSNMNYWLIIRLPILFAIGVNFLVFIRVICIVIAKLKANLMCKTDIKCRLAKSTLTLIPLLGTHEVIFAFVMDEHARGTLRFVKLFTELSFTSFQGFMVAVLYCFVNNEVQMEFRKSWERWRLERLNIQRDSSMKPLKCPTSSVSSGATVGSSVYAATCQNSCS

## CC[C@H](C)[C@H](NC(=O)[C@@H]1CCCN1C(=O)[C@@H](NC(=O)CNC(=O)CNC(=O)CNC(=O)[C@H](CO)NC(=O)[C@@H]1CCCN1C(=O)[C@H](CCCNC(=N)N)NC(=O)CNC(=O)[C@H](CCCCN)NC(=O)[C@@H](NC(=O)[C@H](CC(C)C)NC(=O)[C@H](Cc1c[nH]c2ccccc12)NC(=O)[C@H](C)NC(=O)[C@@H](NC(=O)[C@H](Cc1ccccc1)NC(=O)[C@H](CCC(=O)O)NC(=O)[C@H](CCCCN)NC(=O)[C@H](C)NC(=O)[C@H](C)NC(=O)[C@H](CCC(N)=O)NC(=O)CNC(=O)[C@H](CCC(=O)O)NC(=O)[C@H](CC(C)C)NC(=O)[C@H](Cc1ccc(O)cc1)NC(=O)[C@H](CO)NC(=O)[C@H](CO)NC(=O)[C@@H](NC(=O)[C@H](CC(=O)O)NC(=O)[C@H](CO)NC(=O)[C@@H](NC(=O)[C@H](Cc1ccccc1)NC(=O)[C@@H](NC(=O)CNC(=O)[C@H](CCC(=O)O)NC(=O)[C@H](C)NC(=O)[C@@H](N)Cc1c[nH]cn1)[C@@H](C)O)[C@@H](C)O)C(C)C)[C@@H](C)CC)C(C)C)[C@@H](C)CC)C(N)=O [Cmpd 4888]
[1]
  EC50: 0.17 nM

## CC[C@H](C)[C@H](NC(=O)[C@H](Cc1ccccc1)NC(=O)[C@H](CCC(=O)O)NC(=O)[C@H](CCCCN)NC(=O)[C@H](C)NC(=O)[C@H](C)NC(=O)[C@H](CCC(N)=O)NC(=O)CNC(=O)[C@H](CCC(=O)O)NC(=O)[C@H](CC(C)C)NC(=O)[C@H](Cc1ccc(O)cc1)NC(=O)[C@H](CO)NC(=O)[C@H](CO)NC(=O)[C@@H](NC(=O)[C@H](CC(=O)O)NC(=O)[C@H](CO)NC(=O)[C@@H](NC(=O)[C@H](Cc1ccccc1)NC(=O)[C@@H](NC(=O)CNC(=O)[C@H](CCC(=O)O)NC(=O)[C@H](C)NC(=O)[C@H](Cc1c[nH]cn1)NC(=O)COCCOCCNC(=O)[C@@H]1CCCN1C(=O)[C@H](C)NC(CCc1ccccc1)C(=O)O)[C@@H](C)O)[C@@H](C)O)C(C)C)C(=O)N[C@@H](C)C(=O)N[C@@H](Cc1c[nH]c2ccccc12)C(=O)N[C@@H](CC(C)C)C(=O)N[C@H](C(=O)N[C@@H](CCCCN)C(=O)NCC(=O)N[C@@H](CCCNC(=N)N)C(N)=O)C(C)C (stereo partly drawn) [Cmpd 4983, (R,S)-1-[N2-(1-carboxy-3-phenylpropyl)-L-ala]-L-pro-ado-GLP-1-(7-36) amide]
Plasma stability
  plasma stability as compared to native GLP-1: increased plasma stability
Plasma stability; second, narrower list of b152
  plasma stability as compared to native GLP-1: increased plasma stability

## CC[C@H](C)[C@H](NC(=O)[C@H](Cc1ccccc1)NC(=O)[C@H](CCC(=O)O)NC(=O)[C@H](CCCCN)NC(=O)[C@H](C)NC(=O)[C@H](C)NC(=O)[C@H](CCC(N)=O)NC(=O)CNC(=O)[C@H](CCC(=O)O)NC(=O)[C@H](CC(C)C)NC(=O)[C@H](Cc1ccc(O)cc1)NC(=O)[C@H](CO)NC(=O)[C@H](CO)NC(=O)[C@@H](NC(=O)[C@H](CC(=O)O)NC(=O)[C@H](CO)NC(=O)[C@@H](NC(=O)[C@H](Cc1ccccc1)NC(=O)[C@@H](NC(=O)CNC(=O)[C@H](CCC(=O)O)NC(=O)[C@H](C)NC(=O)[C@H](Cc1c[nH]cn1)NC(=O)COCCOCCNC(=O)COCCOCCNC(=O)[C@@H]1CCCN1C(=O)[C@H](C)NC(CCc1ccccc1)C(=O)O)[C@@H](C)O)[C@@H](C)O)C(C)C)C(=O)N[C@@H](C)C(=O)N[C@@H](Cc1c[nH]c2ccccc12)C(=O)N[C@@H](CC(C)C)C(=O)N[C@H](C(=O)N[C@@H](CCCCN)C(=O)NCC(=O)N[C@@H](CCCNC(=N)N)C(N)=O)C(C)C (stereo partly drawn) [Cmpd 4984, (R,S)-1-[N2-(1-carboxy-3-phenylpropyl)-L-ala]-L-pro-ado-ado-GLP-1-(7-36) amide]
Plasma stability
  plasma stability as compared to native GLP-1: increased plasma stability

## CC[C@H](C)[C@H](NC(=O)[C@H](Cc1ccccc1)NC(=O)[C@H](CCC(=O)O)NC(=O)[C@H](CCCCN)NC(=O)[C@H](C)NC(=O)[C@H](C)NC(=O)[C@H](CCC(N)=O)NC(=O)CNC(=O)[C@H](CCC(=O)O)NC(=O)[C@H](CC(C)C)NC(=O)[C@H](Cc1ccc(O)cc1)NC(=O)[C@H](CO)NC(=O)[C@H](CO)NC(=O)[C@@H](NC(=O)[C@H](CC(=O)O)NC(=O)[C@H](CO)NC(=O)[C@@H](NC(=O)[C@H](Cc1ccccc1)NC(=O)[C@@H](NC(=O)CNC(=O)[C@H](CCC(=O)O)NC(=O)[C@H](C)NC(=O)[C@H](Cc1c[nH]cn1)NC(=O)COCCOCCN)[C@@H](C)O)[C@@H](C)O)C(C)C)C(=O)N[C@@H](C)C(=O)N[C@@H](Cc1c[nH]c2ccccc12)C(=O)N[C@@H](CC(C)C)C(=O)N[C@H](C(=O)N[C@@H](CCCCN)C(=O)NCC(=O)N[C@@H](CCCNC(=N)N)C(N)=O)C(C)C [Cmpd 4992]
Plasma stability
  plasma stability as compared to native GLP-1: increased plasma stability
Plasma stability; second, narrower list of b152
  plasma stability as compared to native GLP-1: increased plasma stability

## GLP-1-(7-37)-GG-(S)-2,6-diamino-1-(thiazolidin-2-cyano-3-y1)hexan-1-one amide (HAEGTFTSDVSSYLEGQAAKEFIAWLVKGRGGG; C-terminal cyano DPP4 inhibitor moiety, amide) [Cmpd 4845]
[1]
  EC50: 0.4 nM

## HGEGTFTSDLSKQVQEEAVRLFVEFLKN-NH2 [Cmpd 5035]
[1]
  EC50: 628 nM

## HGEGTFTSDLVKILEAEAVRKFIEFLKN-NH2 [Cmpd 5052]
[1]
  EC50: 4.5 nM

## HGEGTFTSDVTQQLEEEAVRLFIEWLKQGGPSSGAPPPS-NH2 [Cmpd 5099]
[1]
  EC50: 1.29 nM
Plasma stability
  plasma stability as compared to native GLP-1: increased plasma stability
Plasma stability; second, narrower list of b152
  plasma stability as compared to native GLP-1: increased plasma stability

## HGEGTFTSDLSKQVQEEAVRLFVEFLKN-NH2 [Cmpd 5035]
[2]
  cAMP, CYCLASE GLP/GIP/CT (RIN) EC50: 628 nM

## HGEGTFTSDLSKQLEEEAVRLFIEWLKNGKPKKIRYA [Cmpd 5439]
[2]
  cAMP, GLP-1 CYCLASE (6-23) EC50: 0.17 nM

## HGEGTFTSDLSKQLEEEAVRLFIEWLKNGKPKKARYS [Cmpd 5441]
[2]
  cAMP, GLP-1 CYCLASE (6-23) EC50: 0.128 nM

## HGEGTFTSDLSKQLEEEAVRLFIEWLKNGKPAKIRYS [Cmpd 5443]
[2]
  cAMP, GLP-1 CYCLASE (6-23) EC50: 0.08 nM

## HGEGTFTSDLSKQLEEEAVRLFIEWLKNGKPKKIAYS [Cmpd 5440]
[2]
  cAMP, GLP-1 CYCLASE (6-23) EC50: 0.13 nM

## HGEGTFTSDLSKQLEEEAVRLFIEWLKNGKPKAIRYS [Cmpd 5442]
[2]
  cAMP, GLP-1 CYCLASE (6-23) EC50: 0.1 nM

## HGEGTFTSDLSKQLEEEAVRLFIEWLKNGKPGKGKIRYS [Cmpd 5295]
[2]
  cAMP, GLP-1 CYCLASE (6-23) EC50: 0.089 nM

## HGEGTFTSDLSKQLEEEAVRLFIEWLKNGKPGGKKIRYS [Cmpd 5451]
[2]
  cAMP, CYCLASE GLP/GIP/CT (RIN) EC50: 0.205 nM

## HGEGTFTSDVTEYLEEEAVRLFIEWLKQGGPSSGAPPPS-NH2 [Cmpd 5129]
[2]
  cAMP, CYCLASE GLP/GIP/CT (RIN) EC50: 1.09 nM

## HGEGTFTSDLSKQLEEEAVRLFIEWLKNGGPSKEIIA [Cmpd 5444]
[2]
  cAMP, GLP-1 CYCLASE (6-23) EC50: 0.09 nM

## HGEGTFTSDLSKQLEEEAVRLFIEWLKNGGPSKAIIS [Cmpd 5446]
[2]
  cAMP, GLP-1 CYCLASE (6-23) EC50: 0.1 nM

## HGEGTFTSDLSKQLEEEAVRLFIEWLKNGGPSKEIAS [Cmpd 5445]
[2]
  cAMP, GLP-1 CYCLASE (6-23) EC50: 0.09 nM

## HGEGTFTSDLVKILEAEAVRKFIEFLKNGGPSSGAPPPS-NH2 [Cmpd 5529]
[2]
  cAMP, GLP-1 CYCLASE (6-23) EC50: 0.388 nM

## HGEGTFTSDLSKQLEEEAVRLFIEWLIKGKP [Cmpd 5227]
[2]
  cAMP, GLP-1 CYCLASE (6-23) EC50: 0.629 nM

## HGEGTFTSDLSKQLEEKAAKEFIEWLIQGGPSKEIIS [Cmpd 5101]
[2]
  cAMP, CYCLASE GLP/GIP/CT (RIN) EC50: 0.863 nM
